One series has as its target T1, GFP-tagged LRRK2 (Homo sapiens, UniProt Q5S007).
T1 construct: co-transfecting HEK293 cells with GFP-tagged and strep-tagged full-length LRRK2; expressed in transfected cells; host or cells: HEK293
As to the kind of experiment: Localization of GFP-tagged LRRK2 by confocal microscopy. In kind it is cell-based. To be noted: HEK293 cells, 10 μM peptide, 12 h. The text has this:
Next, we analyzed the effects of these inhibitor peptides on LRRK2 localization.

The next series concerns the target T2, LRRK2 dimerization (Homo sapiens, UniProt Q5S007).
T2 construct: co-transfecting HEK293 cells with GFP-tagged and strep-tagged full-length LRRK2; expressed in transfected cells; host or cells: HEK293
Put plainly: In vitro dimerization assay (co-immunoprecipitation of GFP- and Strep-tagged LRRK2). It is filed as biochemical. To be noted: 10 μM peptide overnight, HEK293 lysates. As to the method:
In vitro dimerization assay. HEK293 cells were co-transfected using JetPEI reagent (Polyplus transfection) with pcDNA3.1_GFP.LRRK2 and pDEST(N)SF.LRRK2. Cells were cultivated for 48 hours. The cells were then lysed with 200 μL ice-cold lysis buffer (10 mM Tris/HCl pH 7.5; 150 mM NaCl; 0.5 mM EDTA; 0.5% NP-40), complete EDTA-free protease inhibitor cocktail (Sigma-Aldrich Cat #11836170001) and Protease Inhibitor Cocktail, Sigma (cat. no. P-2714). The mixture was incubated and rotated on ice for 30 minutes with extensively pipetting every 10 minutes. Lysate was cleared by centrifugation for 10 min at 14000 g for 10 min at 4° C. The supernatant was transferred to a precooled tube and 300 μL dilution buffer (same as lysis buffer without NP-40) was added to the lysate. Peptides were added to a final concentration of 10 μM and the mixture was allowed to rotate at 4° C. overnight. GFP-LRRK2 was immunoprecipitated with Magnetic GFP nanotrap beads (ChromoTek). […] The membranes were coated with enhanced chemiluminescent (ECL) reagent (WesternSure PREMIUM, Li-COR biosciences), and proteins were detected by C-Digit Imaging System (Li-COR Biosciences).
To determine whether LCIP1 and LRIP4 could effectively disrupt LRRK2 dimerization, we monitored disruption of dimerization using two different tagged versions of LRRK2. […]

In series [1] the test system is LRRK2 dimers (WT/WT, WT/G2019S, G2019S/G2019S). As to the kind of experiment: Proximity biotinylation ELISA-based LRRK2 dimerization assay in cells. The following applies: for LRRK2 dimerization in cells (FIG. 8): 0.1, 1 and 10 μM fluorescently labeled peptide; for LRRK2 dimerization, wild-type homodimers and wild-type/G2019S heterodimers: HEK293 cells. In kind it is cell-based. From the text:
Proximity biotinylation of LRRK2. To purify LRRK2 dimers, we relied on the proximity biotinylation technique recently described (E. Leandrou et al., Kinase activity of mutant LRRK2 manifests differently in hetero-dimeric vs. homo-dimeric complexes. Biochem J 476, 559-579 (2019); and M. Fernandez-Suarez, T. S. Chen, A. Y. Ting, Protein-protein interaction detection in vitro and in cells by proximity biotinylation. J Am Chem Soc 130, 9251-9253 (2008)). Briefly, two cDNAs were created encoding LRRK2 fusions with biotin ligase (BirA; N-term, Flag-tagged) and an acceptor peptide (AP, N-term; c-Myc tagged), and over-expressed in HEK293T cells grown in biotin-depleted medium (OptiMEM+2% FBS). The following day, the cells were treated with the indicated concentrations of the stapled peptides: LRIP4 and LCIP1. Stock peptides, fluorescently tagged, were diluted in serum-free medium, and added every 24 hours after transfection. After 48 hours following initiation of treatment (i.e. 72 hr of total expression), the cells were extensively washed in PBS, given a brief biotin pulse (50 μM, 5 min, 37° C.), followed by another 3× washes in PBS, centrifuged and the pellet snap frozen in a dry-ice/MeOH bath. Following lysis, extracts were diluted in TBST/BSA (10 mM Tris HCl, pH 7.6; 100 mM NaCl; 0.1% Triton X-100; 1% BSA) and 2.5 μg of protein loaded in parallel ELISA plates, coated with streptavidin (SA; to capture biotinylated LRRK2 dimers) and anti-LRRK2 (to quantify LRRK2 over-expression). To detect and quantify dimeric LRRK2, SA-coated plates were incubated with HRP-conjugated anti-Flag antibodies (1 hour, room temperature). Since the biotin tag is only present on AP-LRRK2 fusions, and the flag epitope tag is located on the BirA-LRRK2 fusion, by using HRP-Flag as our detector reagent, we are specifically labeling dimeric LRRK2 present in the ELISA plates. On the parallel anti-LRRK2 coated plates (clone c41-2), total over-expressed LRRK2 was quantified using HRP-LRRK2 antibodies (clone N241) and used to normalize the relative amounts of dimeric LRRK2. The following LRRK2 dimers were assessed: WT/WT homodimers, WT/G2019S, and G2019S/G2019S homodimers.
In this assay, HEK293T cells expressing either wild-type or G2019S mutants of LRRK2 fusions, either with the biotin ligase BirA or the acceptor peptide AP, were treated with increasing concentrations (0.1, 1, and 10 μM) of each fluorescently labeled peptide.
A general note: In an ELISA, binding on a coated surface is turned into a signal by an enzyme label.

“Also recorded” adds a separate entry of the source.

Sequence of LRRK2 dimers (WT/WT, WT/G2019S, G2019S/G2019S) (Q5S007 1328-1878 limits assumed, stated change not applied): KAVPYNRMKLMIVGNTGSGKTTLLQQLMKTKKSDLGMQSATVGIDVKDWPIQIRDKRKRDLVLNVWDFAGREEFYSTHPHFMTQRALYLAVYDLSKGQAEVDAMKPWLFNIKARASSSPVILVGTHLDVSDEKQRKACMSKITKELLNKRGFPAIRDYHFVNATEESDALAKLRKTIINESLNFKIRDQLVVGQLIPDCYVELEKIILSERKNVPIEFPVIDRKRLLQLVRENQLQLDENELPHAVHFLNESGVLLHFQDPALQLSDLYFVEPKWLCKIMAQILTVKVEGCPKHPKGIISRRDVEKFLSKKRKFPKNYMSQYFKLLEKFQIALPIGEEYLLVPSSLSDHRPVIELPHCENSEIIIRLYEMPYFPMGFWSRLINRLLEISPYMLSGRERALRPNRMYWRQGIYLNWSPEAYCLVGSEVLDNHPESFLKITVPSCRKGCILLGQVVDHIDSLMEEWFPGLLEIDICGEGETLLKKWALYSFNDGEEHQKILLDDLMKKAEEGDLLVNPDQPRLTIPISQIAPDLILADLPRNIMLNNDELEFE
T1 sequence (Q5S007 whole entry): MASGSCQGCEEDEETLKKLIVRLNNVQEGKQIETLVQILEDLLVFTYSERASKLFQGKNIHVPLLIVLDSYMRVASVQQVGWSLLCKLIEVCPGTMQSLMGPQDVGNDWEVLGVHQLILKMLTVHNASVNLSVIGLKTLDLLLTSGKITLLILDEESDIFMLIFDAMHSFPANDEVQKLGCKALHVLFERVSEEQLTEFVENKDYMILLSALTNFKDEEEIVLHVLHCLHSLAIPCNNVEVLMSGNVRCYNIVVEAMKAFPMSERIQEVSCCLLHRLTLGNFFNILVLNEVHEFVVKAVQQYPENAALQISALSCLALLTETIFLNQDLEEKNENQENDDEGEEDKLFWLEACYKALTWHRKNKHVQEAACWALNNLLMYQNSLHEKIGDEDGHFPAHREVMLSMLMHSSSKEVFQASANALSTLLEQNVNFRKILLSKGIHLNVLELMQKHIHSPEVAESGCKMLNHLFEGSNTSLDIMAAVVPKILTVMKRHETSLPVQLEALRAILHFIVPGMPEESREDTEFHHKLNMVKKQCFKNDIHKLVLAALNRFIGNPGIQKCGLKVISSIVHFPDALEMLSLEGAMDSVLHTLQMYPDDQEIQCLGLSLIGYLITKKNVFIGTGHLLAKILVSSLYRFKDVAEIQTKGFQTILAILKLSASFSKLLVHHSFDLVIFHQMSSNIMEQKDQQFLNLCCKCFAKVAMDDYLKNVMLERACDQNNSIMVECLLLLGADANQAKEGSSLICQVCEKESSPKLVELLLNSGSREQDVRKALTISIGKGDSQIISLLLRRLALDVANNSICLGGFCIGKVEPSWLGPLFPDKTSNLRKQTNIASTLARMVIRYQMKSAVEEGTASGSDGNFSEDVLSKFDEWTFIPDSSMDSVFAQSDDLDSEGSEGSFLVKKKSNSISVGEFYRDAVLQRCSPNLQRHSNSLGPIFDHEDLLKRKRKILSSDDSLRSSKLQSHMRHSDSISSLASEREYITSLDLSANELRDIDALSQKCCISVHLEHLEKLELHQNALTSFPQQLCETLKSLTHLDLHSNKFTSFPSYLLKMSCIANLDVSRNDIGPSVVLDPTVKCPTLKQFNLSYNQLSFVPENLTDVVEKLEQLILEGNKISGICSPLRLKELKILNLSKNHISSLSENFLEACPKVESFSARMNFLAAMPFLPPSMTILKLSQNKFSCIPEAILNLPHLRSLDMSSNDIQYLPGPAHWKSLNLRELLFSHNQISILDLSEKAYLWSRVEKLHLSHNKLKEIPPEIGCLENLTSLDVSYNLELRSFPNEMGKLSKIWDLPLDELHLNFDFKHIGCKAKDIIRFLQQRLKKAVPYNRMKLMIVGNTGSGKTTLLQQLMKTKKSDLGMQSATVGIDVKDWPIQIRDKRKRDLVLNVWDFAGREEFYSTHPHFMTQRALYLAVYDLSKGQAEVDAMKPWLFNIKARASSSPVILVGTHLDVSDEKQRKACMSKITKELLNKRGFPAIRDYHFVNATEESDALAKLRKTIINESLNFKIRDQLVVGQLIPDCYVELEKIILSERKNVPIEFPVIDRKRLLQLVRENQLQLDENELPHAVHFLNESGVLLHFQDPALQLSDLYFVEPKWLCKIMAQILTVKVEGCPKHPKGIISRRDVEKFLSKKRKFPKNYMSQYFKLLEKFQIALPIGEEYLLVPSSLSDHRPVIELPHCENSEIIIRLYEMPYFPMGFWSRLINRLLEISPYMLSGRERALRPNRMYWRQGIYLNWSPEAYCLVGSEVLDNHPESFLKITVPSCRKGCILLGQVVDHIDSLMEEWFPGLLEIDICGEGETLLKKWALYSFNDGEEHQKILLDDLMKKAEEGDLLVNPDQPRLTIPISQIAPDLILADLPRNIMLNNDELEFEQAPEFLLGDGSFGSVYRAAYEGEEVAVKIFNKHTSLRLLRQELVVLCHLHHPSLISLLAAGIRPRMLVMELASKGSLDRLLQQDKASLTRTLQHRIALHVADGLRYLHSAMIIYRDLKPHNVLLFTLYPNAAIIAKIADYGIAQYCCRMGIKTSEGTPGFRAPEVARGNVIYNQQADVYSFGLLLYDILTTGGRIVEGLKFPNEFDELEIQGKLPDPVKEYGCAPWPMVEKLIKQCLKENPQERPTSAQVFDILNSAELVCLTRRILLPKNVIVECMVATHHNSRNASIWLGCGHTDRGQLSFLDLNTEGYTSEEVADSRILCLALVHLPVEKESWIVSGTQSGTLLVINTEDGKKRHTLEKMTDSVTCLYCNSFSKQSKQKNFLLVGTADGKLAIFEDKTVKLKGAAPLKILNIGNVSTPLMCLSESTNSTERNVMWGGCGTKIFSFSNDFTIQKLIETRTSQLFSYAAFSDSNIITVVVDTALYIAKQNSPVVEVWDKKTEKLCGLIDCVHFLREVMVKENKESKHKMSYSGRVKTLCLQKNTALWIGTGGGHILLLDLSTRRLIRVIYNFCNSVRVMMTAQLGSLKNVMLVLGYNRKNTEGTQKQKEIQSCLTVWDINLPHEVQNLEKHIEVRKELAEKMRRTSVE
T2 sequence (Q5S007 whole entry): as above
Method for HEK293 cells: Flow Cytometry. HEK293 cells were plated in 96-well plates (50 000/well) and allowed to grow 24 h in complete growth medium (DMEM supplemented with 10% fetal bovine serum, L-glutamine). DMEM was carefully aspirated and cells were treated with fresh pre-warmed complete growth medium supplemented with 10 μM of peptide or DMSO. After 6 hours, cells were analyzed on Beckman Cytoflex flow cytometer (Beckman Coulter). Using forward and side scattered light, a gate for intact, non-aggregated cells was defined and the fluorescence of 10,000 events was collected within this cell gate. The fluorescent channel for FITC (488-nm excitation [ex], 525-nm emission [em]) was used. Data was analyzed using FlowJo software and the reported fluorescent intensity values represent arithmetic means of the results determined for the analyzed cells.

For “Roc-domain stapled peptide formed from SEQ ID NO. 6 DEKQRKAC(Nle)SKITKEXLNKX, X = (S)-2-(4′-pentenyl)alanine; PEG3 linker, FAM or biotin label (DEKQRKACXSKITKEXLNKX; hydrocarbon staple; Nle; PEG3 linker; FAM or biotin; ROC domain petide; (9)..(9) Xaa is norleucine; (16)..(16) Xaa is (S)-2-(4′-pentenyl)alanine; (20)..(20) Xaa is (S)-2-(4′-pentenyl)alanine) [LRIP4]”, in the series with GFP-tagged LRRK2, the “LRRK2 localization after peptide treatment” value is “LRRK2 maintained its cytoplasmic distribution; also recorded: did not induce mislocalization of LRRK2”. Besides, the “LRRK2 dimerization (Strep-LRRK2 co-precipitated with GFP-LRRK2)” value with LRRK2 dimerization is reported as “reduced the co-immunoprecipitation of the two LRRK2 proteins; also recorded: able to disrupt LRRK2 dimerization with LRIP4 having the most pronounced effect; also recorded: reduced dimerization; also recorded: inhibitory effect on LRRK2”. In the series with HEK293 cells, the “dose dependence of cell uptake by flow cytometry” value is recorded as “dose-dependent uptake”. In series [1], the “LRRK2 dimerization in cells (FIG. 8)” value was “effectively disrupts LRRK2 dimerization in cells”; the “LRRK2 dimerization, wild-type homodimers and wild-type/G2019S heterodimers” value was “inhibit dimerization of both wild-type LRRK2 homodimers and wild-type/G2019S LRRK2 heterodimers”. Also, in series [1] (HEK293(T) cells, 10 mM peptide as printed), the “LRRK2 dimerization, G2019S/G2019S homodimers and G2019S/wild-type heterodimers” value is “statistically significant reduction in both G2019S/G2019S and G2019S/wild-type LRRK2 dimers; also recorded: inhibit dimerization of both wild-type/G2019S LRRK2 heterodimers or G2019S LRRK2 homodimers”.

Turning to “COR-domain stapled peptide formed from SEQ ID NO. 16 KGEGEXLLKXWK, X = (S)-2-(4′-pentenyl)alanine; PEG3 linker, FAM or biotin label (hydrocarbon staple; PEG3 linker; FAM or biotin; COR domain peptide; (6)..(6) Xaa is (S)-2-(4′-pentenyl)alanine; (10)..(10) Xaa is (S)-2-(4′-pentenyl)alanine) [LCIP1]”, in the series with GFP-tagged LRRK2, the “LRRK2 localization after peptide treatment” value is recorded as “LRRK2 maintained its cytoplasmic distribution; also recorded: did not induce mislocalization of LRRK2”. Moreover, the “LRRK2 dimerization (Strep-LRRK2 co-precipitated with GFP-LRRK2)” value in the series with LRRK2 dimerization was “reduced the co-immunoprecipitation of the two LRRK2 proteins; also recorded: able to disrupt LRRK2 dimerization; also recorded: reduced dimerization; also recorded: inhibitory effect on LRRK2”. Also, in the series with HEK293 cells, the “dose dependence of cell uptake by flow cytometry” value is listed as “dose-dependent uptake”. In series [1], the “LRRK2 dimerization in cells (FIG. 8)” value was “failed to consistently lead to a reduction in LRRK2 dimerization; also recorded: no statistically significant effect on dimerization”; the “LRRK2 dimerization, wild-type homodimers and wild-type/G2019S heterodimers” value is “no statistically significant effects on dimerization”.

The record behind these values is patent US12565520B2, “Chemically-stabilized allosteric modulators of leucine-rich repeat kinase 2 (LRRK2)” (UNIVERSITY OF GEORGIA RESEARCH FOUNDATION, INC., priority 2020, dated 2026).
